Test results: patent US20060121462A1 (published 2006)

T1: human CD88 (C5a receptor) (human, UniProt P21730 1-350)
T1 construct: whole, on cells
T1 sequence (looked up): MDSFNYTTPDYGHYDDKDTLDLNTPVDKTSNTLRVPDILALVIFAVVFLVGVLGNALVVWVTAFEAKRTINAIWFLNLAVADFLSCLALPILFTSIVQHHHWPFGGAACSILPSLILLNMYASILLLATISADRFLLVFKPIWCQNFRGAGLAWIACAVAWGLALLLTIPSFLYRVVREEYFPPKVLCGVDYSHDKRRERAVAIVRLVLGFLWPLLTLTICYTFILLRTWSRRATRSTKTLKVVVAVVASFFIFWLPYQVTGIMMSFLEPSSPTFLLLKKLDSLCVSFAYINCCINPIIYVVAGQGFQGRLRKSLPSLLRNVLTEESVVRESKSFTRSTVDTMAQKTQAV

T2: human C3a receptor (C3aR) (human, UniProt Q16581 1-482)
T2 construct: whole, on cells
T2 sequence (looked up): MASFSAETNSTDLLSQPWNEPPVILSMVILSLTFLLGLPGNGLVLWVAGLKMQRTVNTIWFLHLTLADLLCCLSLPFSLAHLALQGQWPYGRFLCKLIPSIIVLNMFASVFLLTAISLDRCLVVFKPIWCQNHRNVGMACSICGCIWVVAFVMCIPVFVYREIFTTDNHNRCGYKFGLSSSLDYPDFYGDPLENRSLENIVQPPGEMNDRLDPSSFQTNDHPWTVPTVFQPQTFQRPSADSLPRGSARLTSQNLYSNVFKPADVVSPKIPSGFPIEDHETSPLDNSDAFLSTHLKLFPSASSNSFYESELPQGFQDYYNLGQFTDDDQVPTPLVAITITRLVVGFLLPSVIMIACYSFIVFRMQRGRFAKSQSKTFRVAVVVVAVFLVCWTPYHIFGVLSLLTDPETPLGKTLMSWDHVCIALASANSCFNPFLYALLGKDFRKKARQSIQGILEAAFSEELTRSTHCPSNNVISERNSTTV


What was measured:
human C5L2 [1] = target: T3, human C5L2 (human, UniProt Q9P296 1-337); assay: competition with 50 pM 125I-C3a on C5L2-transfected RBL cells, 4 C
T3 construct: Expressed on stably transfected RBL-2H3 cells, on transiently or stably transfected HEK 293 cells, and endogenously on HSF cells; also called C5L2 receptor
Procedure: (§1) Competition binding assays were performed using 50 pM ¹²⁵I-C5a or ¹²⁵I-C3a (NEN) on adherent C5aR-transfected or C5L2-transfected RBL cells in 96-well microtiter plates (55 000/well) at 4° C. as described previously (22). Competition curves were generated by pre-incubating adherent cells with increasing concentrations of unlabelled complement fragments. The IC₅₀, standard error values and linear regression analyses were obtained by using GraphPad Prism 2.0.

human C5L2 [2] = target: T3, human C5L2; assay: competition with 50 pM 125I-C5a on C5L2-transfected RBL cells, 4 C
Procedure: as §1

[3] = target: T1, human CD88 (C5a receptor); assay: competition with 50 pM 125I-C5a on CD88-transfected RBL cells, 4 C
Procedure: as §1

[4] = target: T2, human C3a receptor (C3aR); assay: radioligand competition on C3aR-transfected RBL cells (radioligand not given)
[5] = target: T2, human C3a receptor (C3aR); assay: flow cytometry, FLUOS-ASP on HEK 293 cells transiently transfected with C3aR
Procedure: (§2) HEK 293 cells were transfected with C3aR (A) or C5L2 (B) and three days later cells were incubated for 30 minutes with the indicated concentrations of FLUOS-labelled C3a or ASP, respectively. Binding/uptake was assessed by FACS, and the percentage of cells above a fluorescence intensity of 8 was determined. The fluorescence histograms at the highest and lowest ligand concentrations are shown in the insets;
(§3) Recombinant C3a des-Arg⁷⁷ can clearly compete with ¹²⁵I-C3a for binding to C5L2, so we then directly measured the affinity of C3a des-Arg⁷⁷ for C5L2, using protein purified from human plasma as ASP. ASP and purified human C3a were labelled with FLUOS. Increasing concentrations of ASP were incubated with HEK 293 cells transiently transfected with C5L2 and binding and uptake assessed by flow cytometry (FIG. 2A). FLUOS-ASP clearly binds to C5L2, with half maximal fluorescence intensity at approximately 3 nM, whereas mock-tansfected cells show no binding of ASP even at a high concentration of 10 nM. For comparison purposes, the binding of FLUOS-C3a and FLUOS-ASP to HEK 293 cells transiently transfected with C3aR is shown (FIG. 2B). […] Thus, C5L2 has binding characteristics that overlap with both CD88 and C3aR but also the unique ability to bind ASP/C3a des-Arg⁷⁷.

[6] = target: T2, human C3a receptor (C3aR); assay: flow cytometry, binding/uptake of FLUOS-C3a on HEK 293 cells transiently transfected with C3aR, 30 min at 37 C
Procedure: as §2, §3

human C5L2 [7] = target: T3, human C5L2; assay: cell-based or functional assay
human C5L2 [8] = target: T3, human C5L2; assay: radioligand competition on transfected RBL cells (Table I)
[9] = target: T2, human C3a receptor (C3aR); assay: radioligand competition on C3aR-transfected RBL cells

T3 sequence (Q9P296 whole entry): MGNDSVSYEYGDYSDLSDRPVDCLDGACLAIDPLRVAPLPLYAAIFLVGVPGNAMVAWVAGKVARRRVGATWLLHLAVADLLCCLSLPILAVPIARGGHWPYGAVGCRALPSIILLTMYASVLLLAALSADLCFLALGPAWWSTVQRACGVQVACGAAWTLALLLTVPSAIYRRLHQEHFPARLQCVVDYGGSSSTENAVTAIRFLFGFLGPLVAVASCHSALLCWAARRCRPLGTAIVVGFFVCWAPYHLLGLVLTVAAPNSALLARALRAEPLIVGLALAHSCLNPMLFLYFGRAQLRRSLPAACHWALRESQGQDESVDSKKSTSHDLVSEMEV

Row | Binder | pD2 (human C5L2 [1]) | IC50 (human C5L2 [2]) | pD2 (human C5L2 [2]) | IC50 [3] | pD2 [3] | IC50 [4] | pD2 [4] | IC50 (human C5L2 [1]) | binding result [5] | EC50 [6] | activity in the degranulation-enhancement assay against C3a des-Arg^77, C5L2-transfected RBL cells (human C5L2 [7]) | fold higher affinity for C5L2 than for C3aR (human C5L2 [8]) | binding result [9]
1 | recombinant His6-tagged C5a des-Arg^74 (ligand, UniProt P01031 678-750, looked up, domain: C5a des-Arg^74; also called C5adR^74; not shown: His6 tag) TLQKKIEEIAAKYKHSVVKKCCYDGACVNNDETCEQRAARISLGPRCIKAFTECCVVASQLRANISHKDMQLG | < 3 -log IC50 | 36.9 nM | 7.43 -log IC50 | 411 nM | 6.39 -log IC50 | 9670 nM | 5.02 -log IC50 | – | – | – | – | – | –
2 | recombinant C4a (ligand, UniProt P0C0L4 680-756, looked up, domain: C4a; Expressed and purified under non-denaturing conditions) NVNFQKAINEKLGQYASPTAKRCCQDGVTRLPMMRSCEQRAARVQQPDCREPFLSCCQFAESLRKKSRDKGQAGLQR | 6.31 -log IC50 | 3790 nM | 5.42 -log IC50 | 4440 nM | 5.35 -log IC50 | 250 nM | 6.6 -log IC50 | 485 nM | – | – | – | – | –
3 | plasma ASP (C3a des-Arg^77), purified from human plasma (ligand, FLUOS (fluorescein) label in the flow cytometry assays, ^125I label in one assay; labelled residues not stated, Unlabelled in the functional assays; also called acylation stimulating protein; FLUOS-ASP) not shown | – | – | – | – | – | – | – | – | no binding | – | – | – | –
4 | recombinant His6-tagged C5a (ligand, UniProt P01031 678-751, looked up, domain: C5a; Expressed and purified under denaturing conditions; not shown: His6 tag) TLQKKIEEIAAKYKHSVVKKCCYDGACVNNDETCEQRAARISLGPRCIKAFTECCVVASQLRANISHKDMQLGR | 6.53 -log IC50 | 8.17 nM | 8.09 -log IC50 | 20.5 nM | 7.69 -log IC50 | 2900 nM | 5.54 -log IC50 | 293 nM | – | – | – | – | –
5 | recombinant His6-tagged C3a (ligand, domain: C3a; Expressed and purified under denaturing conditions; not shown: His6 tag) not shown | – | – | – | 230000 nM | 4.64 -log IC50 | 155 nM | 6.81 -log IC50 | – | – | – | – | – | –
6 | plasma C3a, purified human C3a (ligand, FLUOS (fluorescein) label; labelled residues not stated, domain: C3a; also called FLUOS-C3a) not shown | – | – | – | – | – | – | – | – | – | 2.5 nM | – | – | –
7 | recombinant C4a des-Arg^77 (ligand, UniProt P0C0L4 680-755, looked up, domain: C4a des-Arg^77; Expressed and purified under non-denaturing conditions; also called C4adR^77) NVNFQKAINEKLGQYASPTAKRCCQDGVTRLPMMRSCEQRAARVQQPDCREPFLSCCQFAESLRKKSRDKGQAGLQ | 6.75 -log IC50 | 170000 nM | 4.72 -log IC50 | – | – | 100000 nM | 4.99 -log IC50 | 177 nM | – | – | 230 fold | 1000 fold | –
8 | recombinant C3a des-Arg^77 (ligand, Recombinant form, expressed and purified under non-denaturing conditions; also called C3adR^77) not shown | – | – | – | – | – | – | < 4 -log IC50 | – | – | – | – | – | no binding (tested: pD2 <4)
